# Data as given in patent US20120201826A1 (NOV IMMUNE S A, published 2012).
# T1: recombinant human RANTES (huRANTES, Peprotech) (human, UniProt P13501 24-91)
# T1 sequence: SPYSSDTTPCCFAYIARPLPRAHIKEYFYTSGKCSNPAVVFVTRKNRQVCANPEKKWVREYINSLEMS
# Biological target: T1, recombinant human RANTES (huRANTES, …)
# Assay: cell-based or functional assay
row,Binder,"Chemotaxis IC50 (nM); L1.2 cells expressing hCCR5, 1 nM huRANTES; scFv format [nM]"
1,E7 scFv (scFv) QVQLVQSGAEVKKPGSSVKVSCKISGGISDNYALSWVRQAPGQGLEWMGAVIPLVETTSYAQRFQGRLTITADDSLNTLYMELGSLRSDDTAMYYCAREQVAVGPGPTSNRGPDGLDVWGRGTMVTVSSQSVLTQPPSVSGAPGQRVTISCTGSSSNIGDGYDVHWYQQLPGTAPKLLIYGNSNRPSGVPDRFSGSTSGTSASLAIRGLQSEDEADYYCGTWDDILNGWVFGGGTKLTVL,3.8
2,C8 scFv (scFv) QVQLVESGGGVVQPGRSLRLSCAASGFTFSSYAMHWVRQAPGKGLEWVAVISYDGSNKYYADSVKGRFTISRDNSKNTLYLQMNSLRAEDTAVYYCARETFPHYYYYYMDVWGRGTLVTVSSSYVLTQPPSVSVAPGQTARITCEGDDTDIGTVNWYQQKPGQAPVLVISEDGYRPSGIPERFSGSNSGNTATLTISRVEAGDEADYYCQFWDVDSDHPVFGGGTQLTVL,90
3,H11 scFv (scFv) QVQLVQSGAEVKKPGSSVKVSCKASGGISDNYALSWVRQAPGQGLEWMGGFIPLVDTTNYAQRFQGRLTITADDSMSTVYMELRSLRSDDTAMYYCAREQVAVGPGPTSDRGPDGLDVWGQGTMVTVSSQSVLTQPSSVSGAPGHRVTISCTGSNSNLGADYDVHWYQQLPGSAPKLLIYDNNIRPSGVPARFSGSKSGTSASLAITGLQAEDEADYYCQSYDTGLTSSDVIFGGGTKLTVL,4.3
4,CG11 scFv (scFv) QVQLVQSGTEVKKPGATVNVSCKISGHLFTDYYIHWVQQAPGKGLEWVGLIDPKDGEIQYAEKFQARVTITADTSTDTVYMELNSLRSEDTAVYYCATEVLSGIRVFPFDPWGQGTLVTVSSQSVLTQPPSVSGAPGQRVTISCTGSSSNIGAGYDVYWYQQFPGKAPKLLIYDTNNRPPGVPDRFSGSKSGTSASLAISGLQTEDEADYYCQSYDIALSNSNVVFGGGTKLTVL,3.6
5,D1 scFv (scFv) EVQLVQSGPEVKKPGATVKISCNVSAETFTDYYIHWVKQAPGRGLEWMGLVDSEEDGETLFAETFRGRVALTADRSTNTAYMELRSLRHDDTAVYYCAAEYGEYGFFQSWGQGTLVTVSSQSVLTQPPSVSGAPGQRVTISCTGSSSNIGADYDVNWYQQLPGTSPKLLIYGDINRPSGVPDRFSASKSGTSASLAITGLQAEDEADYYCQSFDNSLSGSVIFGGGTKLTVL,22
6,1D9 scFv (scFv) QVQLVQSGAEVKKPGASVKVSCKVSGYTLTEFAMHWVRQAPGKGLEWMGGFVPEDGETIYAQKFQGRVTMTEDTSTDTAYMELSSLRSEDTAVYYCATDPLYTPGLEPWGQGTTVTVSSSYVLTQPPSVSVAPGQTARITCGGNNIESKSVHWYQQKPGQAPVLVVYDDSDRPSGIPERFSGSNSGNTATLTISRVEAGDEADYYCQVWDSNTDHWVFGGGTKLTVL,0.82
7,1E4 scFv (scFv) QVQLVQSGAEVKKPGASVKVSCKVSGYTLTEFAMHWVRQAPGKGLEWMGGFVPEDGETIYAQKFQGRVTMTEDTSTDTAYMELSSLRSEDTAVYYCATDPLYEGSFSVWGQGTTVTVSSSYVLTQPPSVSVAPGQTARITCGGNNIESKSVHWYQQKPGQAPVLVVYDDSDRPSGIPERFSGSNSGNTATLTISRVEAGDEADYYCQVWDSNTDHWVFGGGTKLTVL,1.25

# Biological target: T1, recombinant human RANTES (huRANTES, …)
# Assay: cell-based or functional assay
# Remark: another data set of the same source
Binder,"Chemotaxis IC50 (nM), 1 nM huRANTES; L1.2-hCCR5 cells; IgG1 format [nM]","Calcium Flux IC50 (nM), 10 nM rhuRANTES; L1.2-hCCR5 cells; IgG1 format [nM]","Chemotaxis IC50 (nM), 0.2 nM huRANTES; L1.2-hCCR5 cells; IgG1 format [nM]"
"E10 antibody, IgG1 format (antibody, V domains shown) VH: QVQLVESGGGVVQPGRSLRLSCAASGFTFSSYAMHWVRQAPGKGLEWVAVISYDGSNKYYADSVKGRFSISRDNSKNTLYLQMNSLRAEDTAVYYCARETFPHYYYYYMDVWGKGTMVTVSS VL: SYVLTQPPSVSVAPGQTARISCGGGNFDDEGVHWYQQTPGQAPVLVVYDDTGRPSGIPERFSGSSSGNTATLTISRVEAGDEADYYCQAWDSSNDHPVFGGGTQLTVL",16,–,–
"E6 antibody, IgG1 format (antibody, V domains shown) VH: QVQLVQSGAEVEKPGASVKVSCRVSGYPLTEIAIHWVRQAPGKGLEWMGSFEPEDAEAIYAQRFQGRVTMTEETSANTAYMELSSLRSEDTAVYFCATDPYYASSGSNYMEVWGRGTLVTVSS VL: NFMLTQPHSVSESPGKTVTISCTGSGGSISSNYVQWYRQRPGSAPSTVIYEDDQRPSGVPDRISGSIDSSSNSASLTISGLTTEDEADYYCHSYDGNNRWVFGGGTKLTVL",14,12.7,–
"G2 antibody, IgG1 format (antibody, V domains shown) VH: QVQLVQSGAEVKKPGASVKVSCRASGYALTELSIHWVRQAPGKGLEWMGGFDPEDGETIYAQNFQGRVIMTEDTSTDTAYMELSSLKSEDTAVYYCATDLTGSRDSWGQGTLVTVSS VL: QSVLTQPASVSGSPGQSITISCTGSRSDIGYYNYVSWYQQHPGKVPKLIIYDVTERPSGVSDRFSGSKSANTASLTISGLQAEDEADYYCSSFSSGDTFVVFGGGTKLTVL",18.4,–,–
"A5 antibody, IgG1 format (antibody, V domains shown) VH: QVQLVQSGAEVKKPGASVKVSCKVSGYALSELSIHWVRQAPGKGLEWMSYIDPEDGEPIYAQKFQGRATMTEDSSTDTAYMEMGSLTSDDTAVYYCAGVTGSTSDAFDLWGRGTLVTVSS VL: SYVLTQDPSVSVAPGQTARITCGGANLWGLGVHWYQQKSGQAPVLVVSDNSDRASGIPERFSGSNSGTTATLTLSRVEVGDEADYYCQVWDSSSDHWVFGGRTKLTVL",13.2,–,–
"2D1 antibody, IgG1 format (antibody, V domains shown) VH: QVQLVQSGAEVKKPGASVKVSCKVSGYTLNDFAMHWVRQAPGKGLEWMGGYVPEDGDTIYAQKFQGRVTMTEDTSTDTAYMELSSLRSEDTAVYYCATDPLYSGSLSYWGQGTTVTVSS VL: SYVLTQPPSVSVAPGQTARITCGGNNIESKSVHWYQQKPGQAPVLVVYDDSDRPSGIPERFSGSNSGNTATLTISRVEAGDEADYYCQVWDSNTDHWVFGGGTKVTVL",1.7,–,1.3
"3E7 antibody, IgG1 format (antibody, V domains shown) VH: QVQLVQSGAEVKKPGASVKVSCKVSGYTLNDFAMHWVRQAPGKGLEWMGGYVPEDGDTIYAQKFQGRVTMTEDTSTDTAYMELSSLRSEDTAVYYCATDPLYPPGLSPWGQGTTVTVSS VL: SYVLTQPPSVSVAPGQTARITCGGNNIESKSVHWYQQKPGQAPVLVVYDDSDRPSGIPERFSGSNSGNTATLTISRVEAGDEADYYCQVWDSNTDHWVFGGGTKVTVL",0.68,–,0.25
"5E1 antibody, IgG1 format (antibody, V domains shown) VH: QVQLVQSGAEVKKPGASVKVSCKVSGYTLNDFAMHWVRQAPGKGLEWMGGYVPEDGDTIYAQKFQGRVTMTEDTSTDTAYMELSSLRSEDTAVYYCATDYLYIPSLSYWGQGTTVTVSS VL: SYVLTQPPSVSVAPGQTARITCGGNNIESKSVHWYQQKPGQAPVLVVYDDSDRPSGIPERFSGSNSGNTATLTISRVEAGDEADYYCQVWDSNTDHWVFGGGTKVTVL",0.82,–,0.25
"4D8 antibody, IgG1 format (antibody, V domains shown) VH: QVQLVQSGAEVKKPGASVKVSCKVSGYTLNDFAMHWVRQAPGKGLEWMGGYVPEDGDTIYAQKFQGRVTMTEDTSTDTAYMELSSLRSEDTAVYYCATDPLYTPGLYVWGQGTTVTVSS VL: SYVLTQPPSVSVAPGQTARITCGGNNIESKSVHWYQQKPGQAPVLVVYDDSDRPSGIPERFSGSNSGNTATLTISRVEAGDEADYYCQVWDSNTDHWVFGGGTKVTVL",1.16,–,0.22
"7B5 antibody, IgG1 format (antibody, V domains shown) VH: QVQLVQSGAEVKKPGASVKVSCKVSGYTLNDFAMHWVRQAPGKGLEWMGGYVPEDGDTIYAQKFQGRVTMTEDTSTDTAYMELSSLRSEDTAVYYCATDPLYSGSLSYWGQGTTVTVSS VL: SYVLTQPPSVSVAPGQTARITCGGNNIESKSVHWYQQKPGQAPVLVVYDDSDRPSGIPERFSGSNSGNTATLTISRVEAGDEADYYCQVWDSGPVWWIFGGGTKLTVL",1.1,–,0.31
"6A8 antibody, IgG1 format (antibody, V domains shown) VH: QVQLVQSGAEVKKPGASVKVSCKVSGYTLNDFAMHWVRQAPGKGLEWMGGYVPEDGDTIYAQKFQGRVTMTEDTSTDTAYMELSSLRSEDTAVYYCATDPLYPPGLQPWGQGTTVTVSS VL: SYVLTQPPSVSVAPGQTARITCGGNNIESKSVHWYQQKPGQAPVLVVYDDSDRPSGIPERFSGSNSGNTATLTISRVEAGDEADYYCQVWDSNTDHWVFGGGTKVTVL",0.74,–,0.31
"C10 antibody, IgG1 format (antibody, V domains shown) VH: not shown VL: SYVLTQPPSVSVAPGKTASISCGGDNIGGQNVHWYQQKPGQAPVLVIYYDTDRPSGIPERFSGSNSGNTATLSISRVEAADEADYYCQVWDVDSDHPWVFGGGTKLTVL",17,–,–
"BG11 antibody, IgG1 format (antibody, V domains shown) VH: QVQLVQSGAEVKKPGASVKVSCKVSGYTLTELSMHWVRQAPGKGLEWMGGFDPEDGETIYAQKFQGRVTMTEDTSTDTAYMELSSLRSEDTAVYYCATYSGSSGWWAFDIWGQGTMVTVSS VL: SSELTQDPAVSVALGQTVRITCQGDSLRSYYASWYQQKPGQAPVLVIYGKNNRPSGIPDRFSGSSSGNTASLTITGAQAEDEADYYCQTWGTGIWVFGGGTKLTVL",29,7.7,–
